Experimental data: the RNAGym collection of RNA variant scans (doi:10.7554/elife.80360)

B1: Hairpin Ribozyme (parent)
chain: GUCCUCUUUCACGUGCGCGUGAAAGAGAGAAGUGAACCAGAGAAACACACGUUGUGGUAUAUUACCUGGUA

Variants of: B1
Experiment: self-cleavage, relative activity (ratio to wild type); higher = more cleavage; co-transcriptional

Variant | self-cleavage
U2A U33C | 0.0635
U2A U33G | 0.151
U2C C50U | 0.252
G1A U52C | 0.181
U2G A22G | 0.264
U2G A22C | 0.354
U2G A26G | 0.277
U2C C38G | 0.157
G1C U63A | 0.194
G1C U63C | 0.285
G1U U58G | 0.253
U2C A39U | 0.249
U2A C6A | 0.238
U2A C6U | 0.182
U2A C6G | 0.247
G1C G51A | 0.343
G1U C50G | 0.124
U2C G56U | 0.178
U2A G29U | 0.111
U2C U62C | 0.203
U2A A26C | 0.311
G1U A26U | 0.068
G1U A26C | 0.103
G1C U5A | 0.133

Variant | self-cleavage
G1C U5G | 0.237
G1U G56A | 0.127
G1C A30U | 0.0862
G1C U20A | 0.175
G1U C48G | 0.0484
G1U U53C | 0.179
U2C A30G | 0.349
G1U A11C | 0.0545
G1A U55G | 0.0224
G1C U33C | 0.134
G1C U33G | 0.228
G1C A41C | 0.411
G1C A41U | 0.229
U2C A22C | 0.161
U2C A24G | 0.154
U2A C46G | 0.0818
G1U A43G | 0.0972
G1U A43U | 0.142
G1U A43C | 0.169
G1A U8C | 0.265
G1A U8A | 0.232
U2G A41C | 0.566
G1U U52G | 0.143
U2C C37A | 0.0991

Variant | self-cleavage
U2C U53G | 0.0768
U2C U53C | 0.0859
G1C A45U | 0.217
U2C A35U | 0.259
U2C A35G | 0.243
U2C G51U | 0.172
G1U A36C | 0.143
U2C G27C | 0.153
U2C A45U | 0.0729
U2C C16U | 0.163
U2A C16G | 0.156
U2C G34U | 0.316
U2C G34C | 0.208
G1C U7A | 0.229
G1C U7C | 0.488
U2A C50G | 0.189
U2C A59U | 0.108
U2C G54C | 0.127
U2C C10G | 0.118
U2C C10U | 0.159
U2C C10A | 0.117
G1A U14C | 0.166
G1A U14G | 0.195
U2G A39C | 0.177

Variant | self-cleavage
U2A G34A | 0.319
U2A G34C | 0.501
G1C A44U | 0.295
U2C A36U | 0.207
U2C A36C | 0.17
G1U G13A | 0.0563
U2C G29C | 0.16
U2C G29U | 0.0528
U2A A41G | 0.0798
U2A A41C | 0.379
U2C G68U | 0.161
U2A U62G | 0.088
G1C C38A | 0.281
G1C C38G | 0.112
G1C A49G | 0.315
G1C A49C | 0.159
G1C A49U | 0.252
U2C A61C | 0.0902
U2A G57U | 0.109
U2C G32C | 0.174
U2C G32A | 0.138
U2C G40U | 0.103
G1C U8G | 0.216
G1U G21U | 0.109

Variant | self-cleavage
G1U G21C | 0.112
G1C U9C | 0.198
G1U A49U | 0.0947
G1U A49C | 0.202
U2A A44G | 0.119
G1A U62G | 0.0492
G1A U62C | 0.133
U2A G25A | 0.259
U2C C65A | 0.195
U2A A11U | 0.269
G1C U60G | 0.0347
G1C U60A | 0.123
U2G A31C | 0.0758
U2G A31G | 0.281
U2G A31U | 0
G1C U58C | 0.16
U2A A43C | 0.114
G1C G19C | 0.0663
G1C G19U | 0.194
U2C G19U | 0.161
G1U A30U | 0.162
G1U A30C | 0.178
G1U A31G | 0.0331
G1U A31C | 0.0695

Variant | self-cleavage
G1C C16A | 0.0908
G1U C4U | 0.206
G1U U9A | 0.115
G1C G42A | 0.148
G1C G42U | 0.145
U2A A49G | 0.188
U2A G69A | 0.215
G1C U62C | 0.0543
G1U C10U | 0.132
G1U C10A | 0.151
G1C U55G | 0.132
G1C A31C | 0.284
U2C A64G | 0.123
G1C A71G | 0.313
U2C G25A | 0.195
U2C G25U | 0.134
G1C G54U | 0.274
G1C G54C | 0.072
U2C U60G | 0.226
U2C U60A | 0.312
U2C U60C | 0.222
G1U A45C | 0.126
G1U A45G | 0.0992
G1U A45U | 0.228

Variant | self-cleavage
G1A U63A | 0.146
G1A U63G | 0.284
G1U A44U | 0.128
G1A U70G | 0.0827
U2C G21C | 0.213
U2C G21U | 0.185
U2C C66A | 0.0248
U2C C66G | 0.0316
U2A G56U | 0.179
G1C G15C | 0.117
G1C G15U | 0.24
U2A A23G | 0.332
G1C C48G | 0.086
G1C C48U | 0.189
U2C U63C | 0.109
U2C U63G | 0
G1A U60C | 0.248
G1A U60G | 0.194
G1U G57C | 0.145
G1U G57U | 0.125
U2C A11G | 0.172
G1U C3U | 0.255
U2G A24G | 0.293
U2G A24C | 0.293

Variant | self-cleavage
U2G A24U | 0.238
G1C U53C | 0.239
U2A A64C | 0.112
G1U A64U | 0.119
G1U A64C | 0.166
G1C A39U | 0.187
G1C A35C | 0.0578
U2A U20G | 0.201
G1C C66G | 0.0728
G1U C38A | 0.154
G1C A24U | 0.19
G1U C18A | 0.157
U2G A36G | 0.274
U2G A36C | 0.208
G1C G29U | 0.129
U2C U55G | 0.0647
U2C U55C | 0.0641
U2A U7C | 0.273
U2A U7G | 0.197
U2C G57C | 0.242
G1U U5G | 0.194
G1C A47C | 0.0859
G1U G54U | 0.141
G1U G54A | 0.0766

Variant | self-cleavage
U2A C3A | 0.401
G1U G19U | 0.134
G1U G19C | 0.105
U2A A22U | 0.208
U2A G32C | 0.0974
G1U U70A | 0.111
G1U U70G | 0.0694
G1U G32U | 0.0476
G1A U58C | 0.216
U2A U14A | 0.174
U2A U14G | 0.235
G1C G32U | 0.171
G1C U52A | 0.0569
G1C A28C | 0.262
G1U C12A | 0.0913
U2C C18G | 0.154
U2C C18A | 0.118
G1A U53C | 0.0768
G1A U53A | 0.12
G1A U53G | 0.0863
U2C U33C | 0.223
U2C U33G | 0.0942
U2C U58C | 0.175
G1U A24C | 0.162

Variant | self-cleavage
G1U A24G | 0.0236
U2A C65G | 0.146
U2A C18U | 0.314
G1C C3G | 0.246
U2C G17A | 0.15
U2C G17C | 0.168
U2C A44C | 0.0731
U2C A44G | 0.275
G1C G27C | 0.201
G1U A28C | 0.0863
G1C C65G | 0.148
U2A U55C | 0.153
U2A G13U | 0.186
G1U A23C | 0.0726
G1U A23G | 0.183
G1U U63C | 0.181
G1U U63A | 0.215
G1C G21C | 0.378
U2A G27A | 0.127
U2A G27C | 0.108
G1A U67A | 0.193
G1A U67G | 0.116
U2C U67C | 0.0838
U2A U5C | 0.137

Variant | self-cleavage
U2A U5A | 0.137
G1U G42U | 0.162
G1U G42C | 0.0939
G1U G42A | 0.121
U2A C37A | 0.161
U2A G19U | 0.244
G1U A39U | 0.0669
G1U A39C | 0.118
G1C G56U | 0.293
G1C C18U | 0.139
G1C C18A | 0.177
G1C C18G | 0.307
U2A C10U | 0.208
U2A C10A | 0.132
U2A C10G | 0.238
U2A C4A | 0.165
G1U U33C | 0.173
U2A U58G | 0.161
U2A U58C | 0.21
U2C U14C | 0.359
U2A G17C | 0.22
G1U A71U | 0.167
G1C A43U | 0.171
G1C A43C | 0.0543

Variant | self-cleavage
U2G A35U | 0.27
G1C A64C | 0.186
U2A G40U | 0.129
G1U G17A | 0.2
G1U G17C | 0.112
U2A A35G | 0.225
U2A A35C | 0.374
U2A A35U | 0.174
U2G A30G | 0.0671
U2A G21C | 0.186
U2A G21A | 0.204
U2A G42A | 0.107
U2A C48G | 0.162
U2A C48U | 0.104
G1U G27C | 0.113
U2C U5C | 0.0555
U2C U5G | 0.0932
U2A A30C | 0.162
U2A A39C | 0.133
U2A A39G | 0.0775
G1C U67G | 0.0946
U2C A23C | 0.144
U2A U60G | 0.222
U2A U60C | 0.542

Variant | self-cleavage
U2A G54A | 0.143
U2A G54C | 0.145
U2C A43U | 0.177
U2C A43C | 0.0996
G1A U5G | 0.14
G1U G25U | 0.21
G1U G25C | 0.0754
G1U G25A | 0.133
U2A G68C | 0.154
U2C C46U | 0.133
U2C G13C | 0.121
U2C G13U | 0.121
G1C A22C | 0.274
G1U A47G | 0.046
G1U A47C | 0.107
U2C A41C | 0.0362
U2C C48A | 0.0257
U2C U8G | 0.118
U2C U8A | 0.191
U2C A49U | 0.141
G1A U7A | 0.127
G1A U7C | 0.31
U2A A28C | 0.258
U2A A28U | 0.136

Variant | self-cleavage
U2A A61U | 0.159
U2A A61G | 0.106
G1U U20C | 0.203
G1U U20G | 0.0885
U2A G15C | 0.391
U2C U9A | 0.109
U2C U9C | 0.139
U2C U9G | 0.0171
G1U C66U | 0.0959
U2A A71G | 0.405
U2G A23U | 0.265
U2C G15C | 0.243
G1U G51U | 0.133
U2A A24C | 0.134
U2C G42A | 0.0595
G1U U2C | 0.232
G1C C4U | 0.228
G1C C4A | 0.126
G1C G40U | 0.202
G1C G40A | 0.0839
U2C U70G | 0.269
U2C U70C | 0.16
